Data on 1 molecule can be found in article doi:10.1101/438713.

This experiment concerns the target PvdJ-eGFP (Pseudomonas aeruginosa PAO1). In words: FRET or BRET.

B1: PvdA-mCherry (enzyme)
chain: MTQATATAVVHDLIGVGFGPSNIALAIALQERAQAQGALEVLFLDKQGDYRWHGNTLVSQSELQISFLKDLVSLRNPTSPYSFVNYLHKHDRLVDFINLGTFYPCRMEFNDYLRWVASHFQEQSRYGEEVLRIEPMLSAGQVEALRVISRNADGEELVRTTRALVVSPGGTPRIPQVFRALKGDGRVFHHSQYLEHMAKQPCSSGKPMKIAIIGGGQSAAEAFIDLNDSYPSVQADMILRASALKPADDSPFVNEVFAPKFTDLIYSREHAERERLLREYHNTNYSVVDTDLIERIYGVFYRQKVSGIPRHAFRCMTTVERATATAQGIELALRDAGSGELSVETYDAVILATGYERQLHRQLLEPLAEYLGDHEIGRDYRLQTDERCKVAIYAQGFSQASHGLSDTLLSVLPVRAEEISGSLYQHLKPGTAARALHEHALAS
B1 registered a shortening of the donor fluorescence lifetime against PvdJ-eGFP alone of 10 to 15%.
